# In the RNAGym collection of RNA variant scans (doi:10.7554/elife.80360):
# B1: HDV Ribozyme (parent)
# chain: GGCCGGCAUGGUCCCAGCCUCCUCGCUGGCGCCGGCUGGGCAACAUUCCGAGGGGACCGUCCCCUCGGUAAUGGCGAAUGGGACCCA
# Variants of: B1
# Assay: self-cleavage, relative activity (ratio to wild type); higher = more cleavage; co-transcriptional
row,Variant,self-cleavage
1,GGCGGGCAUGGUCCCAGCCUCCUCGCUGGCGCCGGCUGGGCAACAUUCCGAGGGGACCGUCCCCUCGGUAAUGGCGCAUGGGACCCA [C4G A77C],0
2,GGCGGGCAUGGUCCCAGCCUCCUCGCUGGCGCCGGCUGGGCAACAUUCCGAGGGGACCGUCCCCUCGGUAAUGGCGUAUGGGACCCA [C4G A77U],0.0354
3,GGCGGGCAUGGUCCCAGCCUCCUCGCUGACGCCGGCUGGGCAACAUUCCGAGGGGACCGUCCCCUCGGUAAUGGCGAAUGGGACCCA [C4G G29A],0
4,GGCGGGCAUGGUCCCAGCCUCCUCGCUGUCGCCGGCUGGGCAACAUUCCGAGGGGACCGUCCCCUCGGUAAUGGCGAAUGGGACCCA [C4G G29U],0.0292
5,GGCGGGCAUGGUCCCAGCCUCCUCGCUGGCGCCGGCUGGGCAACCUUCCGAGGGGACCGUCCCCUCGGUAAUGGCGAAUGGGACCCA [C4G A45C],0.0554
6,GGCGGGCAUGGUCCGAGCCUCCUCGCUGGCGCCGGCUGGGCAACAUUCCGAGGGGACCGUCCCCUCGGUAAUGGCGAAUGGGACCCA [C4G C15G],0.308
7,GGCGGGCAUGGUCCCAGCCUCCUCGCUGGCGGCGGCUGGGCAACAUUCCGAGGGGACCGUCCCCUCGGUAAUGGCGAAUGGGACCCA [C4G C32G],0
8,GGCGGGCAUGGUCCCAGCCUCCUCGCUGGCGUCGGCUGGGCAACAUUCCGAGGGGACCGUCCCCUCGGUAAUGGCGAAUGGGACCCA [C4G C32U],0.086
9,GGCGGGCAUGGUCCCAGCCUCCUCGCUGGCGACGGCUGGGCAACAUUCCGAGGGGACCGUCCCCUCGGUAAUGGCGAAUGGGACCCA [C4G C32A],0.0692
10,GGCGGGCAUGGUCCCAGCCUCCUCGCUGGCGCCGGCUGGGCAACAUUCCGAGGGGACCGUCCCCUCGGUAAUGGCGAAUGGGACCCA [C4G],0.376
11,GGCGGGCAUGGUCCCAGCCUCCUUGCUGGCGCCGGCUGGGCAACAUUCCGAGGGGACCGUCCCCUCGGUAAUGGCGAAUGGGACCCA [C4G C24U],0.193
12,GGCAGGCAUGGUCCCAGCCUCCUCGCUGGCGCCGGCUGGGCAACAUUCCGAAGGGACCGUCCCCUCGGUAAUGGCGAAUGGGACCCA [C4A G52A],0.401
13,GGCGGGCAUGGUCCCAGCCUCCUCGCUGGCGCCGGCUCGGCAACAUUCCGAGGGGACCGUCCCCUCGGUAAUGGCGAAUGGGACCCA [C4G G38C],0
14,GGCAGGCAUGGUCCCAGCCUCCUCGCUGGCGCCGGCUGGGCAACAUUCCGAGGGGACCGUCCCCUCGGUAACGGCGAAUGGGACCCA [C4A U72C],0.111
15,GGCGGGCAUGGUCCCAGCCUCCUCGCUGGCGCCGGCUGGGCAACAUUCCGGGGGGACCGUCCCCUCGGUAAUGGCGAAUGGGACCCA [C4G A51G],0.554
16,GGCAGGCAUGGUCCCAGCCUCCUCGCUGUCGCCGGCUGGGCAACAUUCCGAGGGGACCGUCCCCUCGGUAAUGGCGAAUGGGACCCA [C4A G29U],0
17,GGCGGGCAUGGUCCCCGCCUCCUCGCUGGCGCCGGCUGGGCAACAUUCCGAGGGGACCGUCCCCUCGGUAAUGGCGAAUGGGACCCA [C4G A16C],0.0755
18,GGCAGGCAUGGUCCCAGCCUCCUCGCUGGCGCCGGCUGGGCAACAUUCCGAGGGGACCGUCCCCUCGGUAAUGGCGAAUGGAACCCA [C4A G82A],0.0272
19,GGCAGGCAUGGUCCCAGCCUCCUCGCUGGCGCCGGCUGGGCAACAUUCCGAGGGGACCGUCCCCUCGGUAAUGGCGAAUGGUACCCA [C4A G82U],0.089
20,GGCAGGCAUGGUCCCAGCCUCCUCGCUGGCGCCGGCUGGGCAACAUUCCGAGGGGACCGUCCCCUCGGUAAUGGCGAAUGCGACCCA [C4A G81C],0
21,GGCAGGCAUGGUCCCAGCCUCCUCGCUGGCGCCGGCUGGGCAACAUUCCGAGGGGACCGUCCCCUCGGUAAUGGCGAAUGUGACCCA [C4A G81U],0.128
22,GGCAGGCAUGGUCCCAGCCUCCUCGCUGGCGCCGGCUGGGCAACAUUCCGAGGGUACCGUCCCCUCGGUAAUGGCGAAUGGGACCCA [C4A G55U],0.237

row,Variant,self-cleavage
1,GGCGGGCAUGGUCCCAGCCUCCUCGCUGGCGCCGUCUGGGCAACAUUCCGAGGGGACCGUCCCCUCGGUAAUGGCGAAUGGGACCCA [C4G G35U],0.0875
2,GGCGGGCAUGGUCCCAGCCUCCUCGCUGGCGCCGGCUGGGCAACAUUCCGAGGGGACCGUCCCCUCGGUAUUGGCGAAUGGGACCCA [C4G A71U],0.156
3,GGCAGGCAUGGUCCCAGCCUCCUCGCGGGCGCCGGCUGGGCAACAUUCCGAGGGGACCGUCCCCUCGGUAAUGGCGAAUGGGACCCA [C4A U27G],0.225
4,GGCAGGCAUGGUCCCAGCCUCCUCGCUGGCGCCGGCUGGGCAACAUUCCGAGGGGACCGUCCCCUCGGUAAUCGCGAAUGGGACCCA [C4A G73C],0.0426
5,GGCAGGCAUGGUCCCAGCCUCCUCGCUGGCGCCGGCUGGGCAACAUUCCGAGGGGACCGUCCCCUCGGUAAUAGCGAAUGGGACCCA [C4A G73A],0
6,GGCGGGCAUGGUCCCAGCCUCCUCGCUCGCGCCGGCUGGGCAACAUUCCGAGGGGACCGUCCCCUCGGUAAUGGCGAAUGGGACCCA [C4G G28C],0.101
7,GGCAGGCAUGGUCCCAGCCUCCUCGCUGGCGCCGGCUGGGCAACAUUCCGAGGGGACCGUCCCCUCGUUAAUGGCGAAUGGGACCCA [C4A G68U],0.453
8,GGCGGGCAUGGUCCCAGCCUCCUCGCUGGCGCCGGCUGGGCAACAUUCCGAGGGGACCGUCCCCUCGGUAAUGGCGAAUGGGACGCA [C4G C85G],0.332
9,GGCAGGCAUGGUCCCAGCCUCCUCGCUGGCGCCGGCUGGGCAACAUUCCGAGGGGACCGUCCCCUCUGUAAUGGCGAAUGGGACCCA [C4A G67U],0.354
10,GGCGGGCAUGGUCCCAGACUCCUCGCUGGCGCCGGCUGGGCAACAUUCCGAGGGGACCGUCCCCUCGGUAAUGGCGAAUGGGACCCA [C4G C18A],0.0287
11,GGCGGGCAUGGUCCCAGGCUCCUCGCUGGCGCCGGCUGGGCAACAUUCCGAGGGGACCGUCCCCUCGGUAAUGGCGAAUGGGACCCA [C4G C18G],0.0282
12,GGCGGGCAUGGUCCCAGCCUCCUCGCUGGCGCCGGCUGGGCAACAUUCCGAGGGGACCGUCCCCUCGGUUAUGGCGAAUGGGACCCA [C4G A70U],0.35
13,GGCGGGCAUGGUCCCAGCCUCCUCGCUGGCGCCGGCUGGGCAACAUUCCGAGGGGACCGUCCCCUCGGUCAUGGCGAAUGGGACCCA [C4G A70C],0.244
14,GGCAGGCAUGGUCCCAGCCUCCUCGCUGGCGCCGGCUGGGCAACAUUCCGAGGGGACCGUCCCCUCGGCAAUGGCGAAUGGGACCCA [C4A U69C],0.277
15,GGCGGGCAUGGUCCCAGCCUCCUCGCUGGCGCCGGCUGGGCAAAAUUCCGAGGGGACCGUCCCCUCGGUAAUGGCGAAUGGGACCCA [C4G C44A],0.0346
16,GGCGGGAAUGGUCCCAGCCUCCUCGCUGGCGCCGGCUGGGCAACAUUCCGAGGGGACCGUCCCCUCGGUAAUGGCGAAUGGGACCCA [C4G C7A],0
17,GGCGGGGAUGGUCCCAGCCUCCUCGCUGGCGCCGGCUGGGCAACAUUCCGAGGGGACCGUCCCCUCGGUAAUGGCGAAUGGGACCCA [C4G C7G],0.0875
18,GGCGGGCAUGGUCCCAGCCUCCUCGCUGGCGCCGGCUGGGCAACAUUCCGAGGGGGCCGUCCCCUCGGUAAUGGCGAAUGGGACCCA [C4G A56G],0.249
19,GGCGGGCAUGGUCCCAGCCUCCUCGCUGGCGCCGGCUGGGCAACAUUCCGAGGGGACCGUCCCCUCGGUAAUGGCGAUUGGGACCCA [C4G A78U],0.116
20,GGCGGGCAUGGUCCCAGCCUCCUCGCUGGCGCCGGCUGGGCAACAUUCCGAGGGGACCGUCCCCUCGGUAAUGGCGACUGGGACCCA [C4G A78C],0.0923
21,GGCGGGCAUGGUCCCAUCCUCCUCGCUGGCGCCGGCUGGGCAACAUUCCGAGGGGACCGUCCCCUCGGUAAUGGCGAAUGGGACCCA [C4G G17U],0
22,GGCAGGCAUGGUCCCAGCCUCCUCGCUGGCGCCGCCUGGGCAACAUUCCGAGGGGACCGUCCCCUCGGUAAUGGCGAAUGGGACCCA [C4A G35C],0.086

row,Variant,self-cleavage
1,GGCAGGCAUGGUCCCAGCCUCCUCGCUGGCGCCGUCUGGGCAACAUUCCGAGGGGACCGUCCCCUCGGUAAUGGCGAAUGGGACCCA [C4A G35U],0.0369
2,GGCGGGCAUGGUCCCAGCCUCCUCGCUGGCGCCGGCUGGGCAACAUUCCGAGGGGACCGUCCCCUCGGUAAUGGAGAAUGGGACCCA [C4G C75A],0.0692
3,GGCGGGCAUGGUCCCAGCCUCCUCGCUGGCGCCGGCUGGGCAACAUUCCGAGGGGACCGUCCCCUCGGUAAUGGGGAAUGGGACCCA [C4G C75G],0.122
4,GGCGGGCAUGGUCCCAGCCUCCUCGCUGGCGCCGGCUGGGCAACAUUCCGAGGGGACCGUCCCUUCGGUAAUGGCGAAUGGGACCCA [C4G C64U],0.214
5,GGCGGGCAUGGUCCCAGCCUCCUCGCUGGCGCCGGCUGGGCUACAUUCCGAGGGGACCGUCCCCUCGGUAAUGGCGAAUGGGACCCA [C4G A42U],0.0875
6,GGCAGGCAUGGUCCCAGCCUCCUCGCUGGCGCCGGCUGGGCAACAUUCCCAGGGGACCGUCCCCUCGGUAAUGGCGAAUGGGACCCA [C4A G50C],0.456
7,GGCAGGCAUGGUCCCAGCCUCCUCGCUGGCGCCGGCUGGGCAACAUUCCAAGGGGACCGUCCCCUCGGUAAUGGCGAAUGGGACCCA [C4A G50A],0.172
8,GGCAGGCAUGGUCCCAGCCUCCUCGCUGGCGCCGGCCGGGCAACAUUCCGAGGGGACCGUCCCCUCGGUAAUGGCGAAUGGGACCCA [C4A U37C],0.415
9,GGCGGGCAUGGUCCCAGCCUCCUCGUUGGCGCCGGCUGGGCAACAUUCCGAGGGGACCGUCCCCUCGGUAAUGGCGAAUGGGACCCA [C4G C26U],0.684
10,GGCGGGCAUGGUCCCAGCUUCCUCGCUGGCGCCGGCUGGGCAACAUUCCGAGGGGACCGUCCCCUCGGUAAUGGCGAAUGGGACCCA [C4G C19U],0.0779
11,GGCGGGCAUGGUCCCAGCCUCCUCGCUGGGGCCGGCUGGGCAACAUUCCGAGGGGACCGUCCCCUCGGUAAUGGCGAAUGGGACCCA [C4G C30G],0
12,GGCGGGCAUGGUCCCAGCCUCCUCGCUGGCGCCAGCUGGGCAACAUUCCGAGGGGACCGUCCCCUCGGUAAUGGCGAAUGGGACCCA [C4G G34A],0.161
13,GGCAGGCAUGGUCCCAGCCUCCUCGCUGGCGCCGGCUGGGCAACAUUCCGAGGGGACCGUCCCCACGGUAAUGGCGAAUGGGACCCA [C4A U65A],0.594
14,GGCGGGCUUGGUCCCAGCCUCCUCGCUGGCGCCGGCUGGGCAACAUUCCGAGGGGACCGUCCCCUCGGUAAUGGCGAAUGGGACCCA [C4G A8U],0.214
15,GGCAGGCAUGGUCCCAGCCUCCUCGCUGGCGCCGGCUGGGCAACAUUCCGAGGGGACCGUCCCCUCGGUAAUGCCGAAUGGGACCCA [C4A G74C],0.0997
16,GGCAGGCAUGGUCCCAGCCUCCUCGCUGGCCCCGGCUGGGCAACAUUCCGAGGGGACCGUCCCCUCGGUAAUGGCGAAUGGGACCCA [C4A G31C],0.0739
17,GGCAGGCAUGGUCCCAGCCUCCUCGCUGGCGCCGGCUCGGCAACAUUCCGAGGGGACCGUCCCCUCGGUAAUGGCGAAUGGGACCCA [C4A G38C],0
18,GGCAGGCAUGGUCCCAGCCUCCGCGCUGGCGCCGGCUGGGCAACAUUCCGAGGGGACCGUCCCCUCGGUAAUGGCGAAUGGGACCCA [C4A U23G],0.0449
19,GGCGGGCAUGGUCCCAGCCUCGUCGCUGGCGCCGGCUGGGCAACAUUCCGAGGGGACCGUCCCCUCGGUAAUGGCGAAUGGGACCCA [C4G C22G],0
20,GGCGGGCAUGGUCCCAGCCUCCUCGCUGGCGCCGGCUGGGCAACAUUCAGAGGGGACCGUCCCCUCGGUAAUGGCGAAUGGGACCCA [C4G C49A],0.346
